Laboratory results: patent US5763284A, “Methods for peptide synthesis and purification” (Dade International Inc., priority 1995, dated 1998)

Columns and labels:
[1] = system: TA1 antibody; assay: BIAcore surface plasmon resonance binding of PenI:C9 muteins to immobilized TA1; parameters: species or system mouse; conditions: 30 μg/mL injected; relative response of wild type PenI:C9 set to 100%
Source text: In order to analyze the different binding of the different PenI:C9 muteins to the TA1 antibody (TA1 was raised from a mouse that had been immunized with F1.2-C9 KLH by standard procedures; F1.2-C9 is the purified factor Xa cleavage product of prothrombin), a biosensor system using surface plasmon resonance detection (BIAcore, Pharmacia Biosensor) has been used. This system records the binding of the antigen to the immobilized TA1 in real time.
TA1 has been chemically immobilized onto the carboxymethylated dextran matrix of the sensor chip (CM5) using the amine coupling kit and the method provided by the manufacturer (Pharmacia Biosensor). For this purpose TA1 was diluted to 57 μg/mL in 10 mM Na-acetate buffer pH4. After activation of the sensor chip with 30 μl of a 1:1 mixture of 11.5 mg/mL N-hydroxysuccinimide (NHS) and 75 mg/ml N-ethyl-N'-(dimethylaminopropyl) carbodiimide (EDC) 5 μL of the TA1 solution was injected at a flow rate of 3 μL/min. […]
Each PenI:C9 and the native PenI protein was injected according to this program and a relative response in RU which represent the amount of penI:C9 mutein bound, was calculated by subtracting the RU of report point 1. from report point 2. Percent of binding was then calculated by setting the relative response of the wild type to 100%. […]

[2] = system: D011 cells; assay: Loading of A20 APC and activation of D011 T cells, IL-2 release ELISA; format: cell-based, murine; conditions: DO11 and A20 cells, 24 hours
Procedure: The efficacy of a fusion polypeptide of the invention to load APCs and activate T cells was tested. A penI:Ova fusion polypeptide (i.e., a fusion polypeptide containing the penI protein linked to an Ova target peptide) was employed as well as other materials. Three independent experiments were performed utilizing A20 APC and the D011 T cell […] cell line. D011 cells are specifically responsive to Ova loaded major histocompability complex class II (MHCII) molecules presented by A20 APCs. A20 cells were loaded with 5 μg purified penI:Ova fusion polypeptide or 5 μg synthetic Ova peptide (positive control synthesized by Mimetics, Chiron Corp.) for 1 hour. 1×10^5 D011 cells were added and incubated with the loaded A20 cells for 24 hours. The degree of activation of D011 cells was determined by the release of Interleukin 2 (IL-2) into the culture medium. After 24 hours of incubation supernatants were collected and analyzed in an ELISA format for IL-2 (using two anti-IL2 antibodies from Pharmacia).
The following Table summarizes the results of the three experiments and includes several negative controls. One of these controls is a PenI:Ova fusion protein containing the hen egg lysozyme (HEL) peptide preceded by the Factor Xa cleavage recognition site IEGRNLCNIPCSALLSS (SEQ ID NO: 55) and therefore should not stimulate D011 cells.

B1: PenI: penI repressor protein of Bacillus licheniformis without fusion peptide; negative control (protein, UniProt P06555 1-128, looked up)
Penicillinase repressor: MKKIPQISDAELEVMKVIWKHSSINTNEVIKELSKTSTWSPKTIQTMLLRLIKKGALNHHKEGRVFVYTPNIDESDYIEVKSHSFLNRFYNGTLNSMVLNFLENDQLSGEEINELYQILEEHKNRKKE
[1]
  Percent of binding to TA1: < 5%
[2]; Experiment 1
  IL-2 release: 0 pg/mL
[2]; Experiment 2
  IL-2 release: 0 pg/mL
[2]; Experiment 3
  IL-2 release: 0 pg/mL
